Changes are numbered by the printed parent chain.
T1: human BCMA (human, UniProt Q02223 1-184)
T1 construct: whole, on cells; also called hBCMA; TNFRSF17
T1 sequence (looked up): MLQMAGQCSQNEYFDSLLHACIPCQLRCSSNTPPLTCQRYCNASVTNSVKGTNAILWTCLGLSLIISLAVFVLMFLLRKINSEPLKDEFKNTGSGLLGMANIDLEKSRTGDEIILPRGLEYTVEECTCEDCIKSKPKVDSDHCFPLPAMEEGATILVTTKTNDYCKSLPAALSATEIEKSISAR

B1: PR001991 (bispecific antibody, human IgG1, kappa, L234A L235A)
chain 1: EVQLLESGGGLVQPGGSLRLSCAASGFTFNTYAMNWVRQAPGKGLEWVSRIRSKYNNYATYYADSVKDRFTISRDDSKSTLYLQMNSLRAEDTAVYYCVRHGNFGNSYVSWFAYWGQGTLVTVSSRTVAAPSVFIFPPSDEQLKSGTASVVCLLNNFYPREAKVQWKVDNALQSGNSQESVTEQDSKDSTYSLSSTLTLSKADYEKHKVYACEVTHQGLSSPVTKSFNRGEC
chain 2: QAVVTQEPSLTVSPGGTVTLTCRSSTGAVTTSNYANWVQQKPGQAPRGLIGGTNKRAPWTPARFSGSLLGDKAALTLLGAQPEDEAEYFCALWYSNLWVFGGGTKLTVLSSASTKGPSVFPLAPSSKSTSGGTAALGCLVKDYFPEPVTVSWNSGALTSGVHTFPAVLQSSGLYSLSSVVTVPSSSLGTQTYICNVNHKPSNTKVDKKVEPKSCDKTHTCPPCPAPEAAGGPSVFLFPPKPKDTLMISRTPEVTCVVVDVSHEDPEVKFNWYVDGVEVHNAKTKPREEQYNSTYRVVSVLTVLHQDWLNGKEYKCKVSNKALGAPIEKTISKAKGQPREPQVYTLPPCREEMTKNQVSLWCLVKGFYPSDIAVEWESNGQPENNYKTTPPVLDSDGSFFLYSKLTVDKSRWQQGNVFSCSVMHEALHNHYTQKSLSLSPGK
chain 3: EVQLLESGGGLVQPGGSLRLSCAASGFTFSSYAMIWVRQAPGKGLEWVSGISESGGSTYYADSVKGRFTISRDNSKNTLYLQMNSLRAEDTAVYFCVKDLDDILTGYYKDYWGQGTLVTVSSASEPKSSDKTHTCPPCPAPEAAGGPSVFLFPPKPKDTLMISRTPEVTCVVVDVSHEDPEVKFNWYVDGVEVHNAKTKPREEQYNSTYRVVSVLTVLHQDWLNGKEYKCKVSNKALGAPIEKTISKAKGQPREPQVCTLPPSREEMTKNQVSLSCAVKGFYPSDIAVEWESNGQPENNYKTTPPVLDSDGSFFLVSKLTVDKSRWQQGNVFSCSVMHEALHNHYTQKSLSLSPGK
notes: CD3 of PR000511, BCMA VH of PR000940; IgG1 knob/hole, AAG
B2: PR001994 (bispecific antibody, human IgG1, kappa, L234A L235A)
chain 1: B1 chain 1
chain 2: B1 chain 2
chain 3: EVQLVETGGGLIQPGGSLRLSCAASGFTVSDNYMTWVRQAPGKGLEWVSVIFSGGNTYYADSVKGRFTISRDNAKNTLYLQMNSLRAEDTALYYCARRNYDDTRGTDVFDIWGQGTMVTVSSASEPKSSDKTHTCPPCPAPEAAGGPSVFLFPPKPKDTLMISRTPEVTCVVVDVSHEDPEVKFNWYVDGVEVHNAKTKPREEQYNSTYRVVSVLTVLHQDWLNGKEYKCKVSNKALGAPIEKTISKAKGQPREPQVCTLPPSREEMTKNQVSLSCAVKGFYPSDIAVEWESNGQPENNYKTTPPVLDSDGSFFLVSKLTVDKSRWQQGNVFSCSVMHEALHNHYTQKSLSLSPGK
notes: BCMAxCD3, Fab(cross VH/VL)-Fc-VH (structure 12); CD3 of PR000511, BCMA VH of PR001046; IgG1 knob/hole, AAG
B3: PR001995 (bispecific antibody, IgG1)
chain 1: EVQLLESGGGLVQPGGSLRLSCAASGFTFNTYAMNWVRQAPGKGLEWVSRIRSKYNNYATYYADSVKDRFTISRDDSKSTLYLQMNSLRAEDTAVYYCVRHGNFGNSYVSWFAYWGQGTLVTVSSASTKGPSVFPLAPSSKSTSGGTAALGCLVKDYFPEPVTVSWNSGALTSGVHTFPAVLQSSGLYSLSSVVTVPSSSLGTQTYICNVNHKPSNTKVDKKVEPKSC
chain 2: QAVVTQEPSLTVSPGGTVTLTCRSSTGAVTTSNYANWVQQKPGQAPRGLIGGTNKRAPWTPARFSGSLLGDKAALTLLGAQPEDEAEYFCALWYSNLWVFGGGTKLTVLGQPKAAPSVTLFPPSSEELQANKATLVCLISDFYPGAVTVAWKADSSPVKAGVETTTPSKQSNNKYAASSYLSLTPEQWKSHRSYSCQVTHEGSTVEKTVAPTECSDKTHTCPPCPAPEAAGGPSVFLFPPKPKDTLMISRTPEVTCVVVDVSHEDPEVKFNWYVDGVEVHNAKTKPREEQYNSTYRVVSVLTVLHQDWLNGKEYKCKVSNKALGAPIEKTISKAKGQPREPQVYTLPPCREEMTKNQVSLWCLVKGFYPSDIAVEWESNGQPENNYKTTPPVLDSDGSFFLYSKLTVDKSRWQQGNVFSCSVMHEALHNHYTQKSLSLSPGK
chain 3: B1 chain 3
notes: as for B1
B4: PR001992 (bispecific antibody, human IgG1, kappa, L234A L235A)
chain 1: B1 chain 1
chain 2: B1 chain 2
chain 3: EVQLVETGGGLIQPGGSLRLSCAASGFPVSSNYMSWVRQAPGKGLEWVSVIFSGGRTYYADSVKGRFTISRDNSKNTLYLQMNSLRAEDTAVYYCARRNWIDGRDAFDIWGQGTMVTVSSASEPKSSDKTHTCPPCPAPEAAGGPSVFLFPPKPKDTLMISRTPEVTCVVVDVSHEDPEVKFNWYVDGVEVHNAKTKPREEQYNSTYRVVSVLTVLHQDWLNGKEYKCKVSNKALGAPIEKTISKAKGQPREPQVCTLPPSREEMTKNQVSLSCAVKGFYPSDIAVEWESNGQPENNYKTTPPVLDSDGSFFLVSKLTVDKSRWQQGNVFSCSVMHEALHNHYTQKSLSLSPGK
notes: BCMAxCD3, Fab(cross VH/VL)-Fc-VH (structure 12); CD3 of PR000511, BCMA VH of PR000943; IgG1 knob/hole, AAG
B5: PR001993 (bispecific antibody, human IgG1, kappa, L234A L235A)
chain 1: B1 chain 1
chain 2: B1 chain 2
chain 3: B4 chain 3 with P28T, S35T, R56S, N99I, W100A, I101V, D102A, R104H, A106V
notes: BCMAxCD3, Fab(cross VH/VL)-Fc-VH (structure 12); CD3 of PR000511, BCMA VH of PR001035; IgG1 knob/hole, AAG
B6: PR003868 (bispecific antibody, human IgG1, lambda, L234A L235A)
light: QAVVTQEPSLTVSPGGTVTLTCRSSTGAVTTSNYANWVQQKPGQAPRGLIGGTNKRAPWTPARFSGSLLGDKAALTLLGAQPEDEAEYFCALWYSNLWVFGGGTKLTVLGQPKAAPSVTLFPPSSEELQANKATLVCLISDFYPGAVTVAWKADSSPVKAGVETTTPSKQSNNKYAASSYLSLTPEQWKSHRSYSCQVTHEGSTVEKTVAPTECS
heavy: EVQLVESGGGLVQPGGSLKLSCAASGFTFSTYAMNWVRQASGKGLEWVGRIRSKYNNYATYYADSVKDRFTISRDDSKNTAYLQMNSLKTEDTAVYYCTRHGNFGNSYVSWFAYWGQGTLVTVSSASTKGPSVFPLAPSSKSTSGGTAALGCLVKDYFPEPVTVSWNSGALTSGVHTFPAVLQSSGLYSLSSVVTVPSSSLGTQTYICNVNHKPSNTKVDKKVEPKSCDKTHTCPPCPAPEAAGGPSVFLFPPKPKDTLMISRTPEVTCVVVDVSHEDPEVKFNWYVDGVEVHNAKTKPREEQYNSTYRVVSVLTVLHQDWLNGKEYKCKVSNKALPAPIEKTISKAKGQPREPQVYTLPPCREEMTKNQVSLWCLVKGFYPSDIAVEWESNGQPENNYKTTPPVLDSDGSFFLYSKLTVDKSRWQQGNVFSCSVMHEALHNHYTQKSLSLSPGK
chain: B2 chain 3 with S30Y, N56K, Y59V, D102Q, G238P
notes: BCMAxCD3, Fab-Fc-VH (structure 11); CD3 Fab of PR003886, BCMA VH of PR004563; IgG1 knob/hole, LALA
B7: PR003869 (bispecific antibody, human IgG1, lambda, L234A L235A)
light: B6 light
heavy: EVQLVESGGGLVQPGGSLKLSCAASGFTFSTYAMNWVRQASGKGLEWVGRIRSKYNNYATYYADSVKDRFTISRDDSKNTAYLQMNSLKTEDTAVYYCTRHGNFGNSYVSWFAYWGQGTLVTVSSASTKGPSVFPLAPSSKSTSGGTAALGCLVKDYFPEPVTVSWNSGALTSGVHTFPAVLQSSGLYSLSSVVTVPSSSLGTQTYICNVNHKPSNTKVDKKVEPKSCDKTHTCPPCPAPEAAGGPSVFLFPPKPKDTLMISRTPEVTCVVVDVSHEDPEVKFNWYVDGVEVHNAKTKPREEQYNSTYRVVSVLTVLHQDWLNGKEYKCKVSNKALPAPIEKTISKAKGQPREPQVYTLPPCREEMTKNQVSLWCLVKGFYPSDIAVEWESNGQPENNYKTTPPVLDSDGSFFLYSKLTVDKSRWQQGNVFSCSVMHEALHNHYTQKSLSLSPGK
chain: B2 chain 3 with N32S, N56R, A60S, D102Q, R104L, G238P
notes: BCMAxCD3, Fab-Fc-VH (structure 11); CD3 Fab of PR003886, BCMA VH of PR004564; IgG1 knob/hole, LALA

Biological target: T1, human BCMA
Assay: FACS on NCI-H929 cells

Row | Maximum MFI | EC50 [nM] | Binder
1 | 1980 |  | B1
2 | 3430 |  | B2
3 | 2590 |  | B3
4 | 3210 |  | B4
5 | 1290 |  | B5
6 | 17400 | 7.3 | B6
7 | 12500 | 1.7 | B7
